For one test, the target named is HLA-DR7 (DRB1*0701) (human). Put plainly: competition ELISA, tracer biotin-YKL. For orientation: In an ELISA, binding on a coated surface is turned into a signal by an enzyme label.
For a further test, the target named is HLA-DR11 (DRB1*1101) (human). Put plainly: competition ELISA, tracer biotin-HA 306-318.
The next test concerns the target HLA-DR4 (DRB1*0401) (human). Put plainly: competition ELISA, tracer biotin-HA 306-318.
The next test addresses HLA-DRB5 (DRB5*0101) (human). Put plainly: competition ELISA, tracer biotin-HA 306-318.
The next test deals with HLA-DR1 (DRB1*0101) (human). Put plainly: competition ELISA, tracer biotin-HA 306-318.
Another test has as its target T1, HLA-DP402 (DPB1*0402) (human, UniProt P20036 29-222, limits assumed).
T1 construct: also called DP*0402
Put plainly: competition ELISA, tracer biotin-Oxy 271-287.

The next test addresses HLA-DP401 (DPB1*0401) (human, UniProt P20036 29-222, limits assumed). Put plainly: competition ELISA, tracer biotin-Oxy 271-287.
For a further test, the target named is HLA-DRB3 (DRB3*0101) (human). Put plainly: competition ELISA, tracer biotin-LOL 191-210.
The next test concerns the target HLA-DR3 (DRB1*0301) (human). Put plainly: competition ELISA, tracer biotin-MT 2-16.
For another test, the target named is HLA-DRB4 (DRB4*0101) (human). Put plainly: competition ELISA, tracer biotin-E2/E168.
Another test deals with HLA-DR13 (DRB1*1301) (human). Put plainly: competition ELISA, tracer biotin-B1 21-36.
In the next test the target is HLA-DR15 (DRB1*1501) (human). Put plainly: competition ELISA, tracer biotin-A3 152-166.

B1: MDK 119-133 (peptide)
peptide: ETIRVTKPCTPKTKA
notes: also called MDK18
On to B1, for which the relative binding activity with HLA-DR7 (DRB1*0701) is 819 IC50 ratio to reference peptide; with HLA-DR11 (DRB1*1101), 763 IC50 ratio to reference peptide; with HLA-DR4 (DRB1*0401), 1290 IC50 ratio to reference peptide; in the test with HLA-DRB5 (DRB5*0101) it was 26 IC50 ratio to reference peptide; in the test with HLA-DR1 (DRB1*0101) it was 2 IC50 ratio to reference peptide.

B2: MDK 78-92 (peptide)
peptide: KEFGADCKYKFENWG
notes: also called MDK12
Regarding B2, the relative binding activity in the test with HLA-DR11 (DRB1*1101) is 800 IC50 ratio to reference peptide; with HLA-DR4 (DRB1*0401), 457 IC50 ratio to reference peptide; with HLA-DRB5 (DRB5*0101) it was 114 IC50 ratio to reference peptide; with HLA-DP402 (DPB1*0402) it was 378 IC50 ratio to reference peptide; in the test with HLA-DP401 (DPB1*0401), 167 IC50 ratio to reference peptide; with HLA-DRB3 (DRB3*0101), 226 IC50 ratio to reference peptide. Also, the relative binding activity with HLA-DR3 (DRB1*0301) was 1 IC50 ratio to reference peptide.

B3: MDK 38-52 (peptide)
peptide: AEWAWGPCTPSSKDC
notes: also called MDK7
With B3, the relative binding activity in the test with HLA-DR11 (DRB1*1101) is 923 IC50 ratio to reference peptide; in the test with HLA-DR4 (DRB1*0401) it was 1860 IC50 ratio to reference peptide; with HLA-DR1 (DRB1*0101) it was 1300 IC50 ratio to reference peptide; with HLA-DP402 (DPB1*0402), 239 IC50 ratio to reference peptide.

B4: MDK 70-84 (peptide)
peptide: CRVPCNWKKEFGADC
notes: also called MDK10
On to B4, for which the relative binding activity with HLA-DR4 (DRB1*0401) was 1560 IC50 ratio to reference peptide; with HLA-DR1 (DRB1*0101) it was 53 IC50 ratio to reference peptide; with HLA-DP401 (DPB1*0401), 7 IC50 ratio to reference peptide; in the test with HLA-DRB3 (DRB3*0101), 621 IC50 ratio to reference peptide.

B5: MDK 105-119 (peptide)
peptide: GTLKKARYNAQCQET
notes: also called MDK16
As to B5, the relative binding activity is 1010 IC50 ratio to reference peptide with HLA-DR11 (DRB1*1101), 492 IC50 ratio to reference peptide with HLA-DR4 (DRB1*0401) and 97 IC50 ratio to reference peptide with HLA-DR1 (DRB1*0101).

B6: MDK 64-78 (peptide)
peptide: QTQRIRCRVPCNWKK
notes: also called MDK9
Regarding B6, the relative binding activity with HLA-DR7 (DRB1*0701) is 2070 IC50 ratio to reference peptide; with HLA-DRB4 (DRB4*0101) it was 1160 IC50 ratio to reference peptide; in the test with HLA-DR11 (DRB1*1101), 504 IC50 ratio to reference peptide; with HLA-DR4 (DRB1*0401) it was 558 IC50 ratio to reference peptide; with HLA-DRB5 (DRB5*0101), 61 IC50 ratio to reference peptide.

B7: MDK 1-15 (peptide)
peptide: MQHRGFLLLTLLALL
notes: synthetic 15-mer of the human midkine precursor; also called peptide 1-15
As to B7, the relative binding activity with HLA-DR7 (DRB1*0701) is 49 IC50 ratio to reference peptide; with HLA-DRB4 (DRB4*0101), 204 IC50 ratio to reference peptide; with HLA-DR11 (DRB1*1101), 7 IC50 ratio to reference peptide; in the test with HLA-DRB5 (DRB5*0101), 161 IC50 ratio to reference peptide; with HLA-DR1 (DRB1*0101) it was 21 IC50 ratio to reference peptide; in the test with HLA-DP402 (DPB1*0402), 19 IC50 ratio to reference peptide. For the same molecule, the relative binding activity with HLA-DP401 (DPB1*0401) is 20 IC50 ratio to reference peptide; with HLA-DRB3 (DRB3*0101) it was 267 IC50 ratio to reference peptide.

B8: MDK 14-28 (peptide)
peptide: LLALTSAVAKKKDKV
notes: synthetic 15-mer of the human midkine precursor; also called MDK4; peptide 14-28
Turning to B8, the relative binding activity with HLA-DR7 (DRB1*0701) was 590 IC50 ratio to reference peptide; in the test with HLA-DR13 (DRB1*1301), 45 IC50 ratio to reference peptide; in the test with HLA-DR11 (DRB1*1101), 48 IC50 ratio to reference peptide; in the test with HLA-DR4 (DRB1*0401), 401 IC50 ratio to reference peptide; in the test with HLA-DRB5 (DRB5*0101), 0.1 IC50 ratio to reference peptide; in the test with HLA-DR1 (DRB1*0101), 34 IC50 ratio to reference peptide.

B9: MDK 89-103 (peptide)
peptide: ENWGACDGGTGTKVR
notes: also called MDK14
B9: the relative binding activity was 1460 IC50 ratio to reference peptide with HLA-DR1 (DRB1*0101) and 2330 IC50 ratio to reference peptide in the test with HLA-DRB3 (DRB3*0101).

B10: MDK 4-18 (peptide)
peptide: RGFLLLTLLALLALT
notes: synthetic 15-mer of the human midkine precursor; also called MDK2; peptide 4-18
On to B10, for which the relative binding activity with HLA-DR7 (DRB1*0701) was 20 IC50 ratio to reference peptide; in the test with HLA-DR15 (DRB1*1501) it was 19 IC50 ratio to reference peptide; with HLA-DRB4 (DRB4*0101) it was 65 IC50 ratio to reference peptide; in the test with HLA-DR11 (DRB1*1101) it was 94 IC50 ratio to reference peptide; with HLA-DRB5 (DRB5*0101), 46 IC50 ratio to reference peptide; in the test with HLA-DR1 (DRB1*0101), 21 IC50 ratio to reference peptide. For the same molecule, the relative binding activity in the test with HLA-DP402 (DPB1*0402) was 18 IC50 ratio to reference peptide; with HLA-DP401 (DPB1*0401), 6 IC50 ratio to reference peptide; in the test with HLA-DRB3 (DRB3*0101) it was 37 IC50 ratio to reference peptide.

B11: MDK 110-124 (peptide)
peptide: ARYNAQCQETIRVTK
notes: synthetic 15-mer of the human midkine precursor; also called MDK17
As to B11, the relative binding activity in the test with HLA-DR11 (DRB1*1101) is 69 IC50 ratio to reference peptide; with HLA-DR4 (DRB1*0401), 6 IC50 ratio to reference peptide; with HLA-DRB5 (DRB5*0101) it was 15 IC50 ratio to reference peptide; with HLA-DR1 (DRB1*0101), 10 IC50 ratio to reference peptide.

B12: MDK 99-113 (peptide)
peptide: GTKVRQGTLKKARYN
notes: also called MDK15
On to B12, for which the relative binding activity is 74 IC50 ratio to reference peptide in the test with HLA-DR13 (DRB1*1301), 215 IC50 ratio to reference peptide with HLA-DRB5 (DRB5*0101) and 3000 IC50 ratio to reference peptide with HLA-DR1 (DRB1*0101).

B13: MDK 74-88 (peptide)
peptide: CNWKKEFGADCKYKF
notes: also called MDK11
Regarding B13, the relative binding activity in the test with HLA-DR11 (DRB1*1101) is 1230 IC50 ratio to reference peptide; with HLA-DRB5 (DRB5*0101) it was 714 IC50 ratio to reference peptide; in the test with HLA-DR1 (DRB1*0101) it was 333 IC50 ratio to reference peptide; with HLA-DRB3 (DRB3*0101) it was 877 IC50 ratio to reference peptide; in the test with HLA-DR3 (DRB1*0301), 2 IC50 ratio to reference peptide.

B14: MDK 9-23 (peptide)
peptide: LTLLALLALTSAVAK
notes: synthetic 15-mer of the human midkine precursor; also called MDK3; peptide 9-23
In the case of B14, the relative binding activity is 13 IC50 ratio to reference peptide with HLA-DR7 (DRB1*0701); 5 IC50 ratio to reference peptide in the test with HLA-DR15 (DRB1*1501); 0.3 IC50 ratio to reference peptide in the test with HLA-DR11 (DRB1*1101); 1 IC50 ratio to reference peptide in the test with HLA-DR4 (DRB1*0401); 2 IC50 ratio to reference peptide with HLA-DRB5 (DRB5*0101); 0.2 IC50 ratio to reference peptide with HLA-DR1 (DRB1*0101). The relative binding activity is 29 IC50 ratio to reference peptide in the test with HLA-DP402 (DPB1*0402) and 94 IC50 ratio to reference peptide with HLA-DP401 (DPB1*0401).

B15: MDK 84-98 (peptide)
peptide: CKYKFENWGACDGGT
notes: also called MDK13
As to B15, the relative binding activity with HLA-DR4 (DRB1*0401) was 362 IC50 ratio to reference peptide; in the test with HLA-DRB5 (DRB5*0101), 292 IC50 ratio to reference peptide; with HLA-DP402 (DPB1*0402), 49 IC50 ratio to reference peptide; with HLA-DP401 (DPB1*0401) it was 52 IC50 ratio to reference peptide.

B16: MDK 25-39 (peptide)
peptide: KDKVKKGGPGSECAE
notes: also called MDK6
For the molecule B16, the relative binding activity in the test with HLA-DR1 (DRB1*0101) was 1250 IC50 ratio to reference peptide.

The record behind these values is US20110159022A1 (published 2011).
